Assays:
[1] = molecular target: 3xFLAG-TMEM24(76-260) (human) (UniProt O14523); assay: native MS
[2] = molecular target: TMEM24 SMP domain (residues 76 to 260) (human) (UniProt O14523); assay: SEC

| stoichiometry N [1] | stoichiometry N [2] | Substance |
| --- | --- | --- |
| 2 |  | 3xFLAG-TMEM24(76-260) (from UniProt O14523 76-260) (domain or fragment) |
|  | 2 | TMEM24 SMP domain (residues 76 to 260) (from UniProt O14523 76-260) (domain or fragment) |

Source: PMC5414417
